Experimental data as given in patent US8445240B2, “Termite enzymes and uses thereof for in vitro conversion of lignin-containing materials to fermentable products” (University of Florida Research Foundation, Inc., priority 2009, dated 2013).
“Also recorded” adds a separate entry of the source.

Assays:
[1] = system: Cell-1
Description: Thermal stability tests were conducted using 1.5% CMC in 100 mM sodium phosphate at the optimal pH of 7. Temperature-cofactor studies were performed using 1.5% CMC dissolved in 100 mM sodium phosphate (pH 7) alone, plus 4 mM EDTA (final concentration), or plus 10 mM calcium chloride (final concentration). Pre-incubations took place for 0-5 days at 25° C. or 0-60 min at 60° C. or 70° C.; reactions were terminated by the combination of adding stop solution and boiling for 10 min, and then assays were read at 25° C.
Calcium as a cofactor in β-1,4-endoglucanase Cell-1 hydrolytic activity and temperature stability: The effects of calcium on recombinant Cell-1 activity were investigated using calcium chloride as a calcium source and EDTA as a potential calcium chelator.

[2] = system: RfLac6; assay: Recombinant laccase Lac6 inhibition and enhancement, 2,6-DMP oxidation; type: biochemical, Reticulitermes flavipes; conditions: 1 mM 2,6-DMP, pH 7.5
Description: Enzyme and inhibitors were pre-incubated 5 min at room temperature on an orbital shaker before adding substrate.

[3] = system: recombinant RfBGluc-1; assay: Inhibition of recombinant RfBGluc-1; type: biochemical, Reticulitermes flavipes; conditions: 25° C., sodium acetate 0.1M pH 7, 2 mM p-nitrophenyl-B-D-glucopyranoside
Description: Assays were conducted at 25° C. in sodium acetate buffer (0.1M, pH 7) using 2 mM p-nitrophenyl-B-D-glucopyranoside as the substrate.

[4] = Lignin alkali metabolism by RfLacA, HPLC analysis; type: biochemical; conditions: 1% w/v, pH 7.5, 16 hr, 32° C.
[5] = Glucose release from pine sawdust by recombinant enzymes and mixtures; type: biochemical; conditions: 2% w/v, 18 hrs, 37° C., pH 7
Description: All reactions were performed in 0.1 M sodium acetate buffer containing 10 mM calcium chloride (pH 7). The two feedstock substrates were pine sawdust (=lignin+cellulose+hemicellulose) and beechwood xylan (=lignin+hemicellulose). Feedstocks were tested at 2% w/v (10 mg in 0.5 mL buffer). Reactions were run for 18 hrs at 37° C. with shaking at 220 rpm in vented 1.5 mL plastic tubes.
Protein volumes used per assay were 10 μL of each of the Cell-1, β-glucosidase, and Laccase 6 recombinant protein preparations. These loading volumes provided 8.5, 7.9 and 2.0 μg of each protein, respectively, per reaction. The storage buffer for Cell-1 and β-glucosidase was 0.1 M sodium acetate, 0.15 M sodium chloride, and 0.5 M calcium chloride (pH 5.8). The storage buffer for Laccase 6 was 0.1M boric acid, phosphoric acid, and acetic acid (pH 7.0).
Reactions were stopped after 18 hours by the addition of 10 μL of 0.2 Methylene-diamine tetra-acetic acid and centrifuged for 5 min at 16,000×g. Glucose detection was performed in triplicate on 125 μL aliquots of each reaction supernatant. The entire experiment was replicated three times. Glucose release was measured using the Autokit Glucose reagent kit (Wako Chemical, Richmond, Va.) at a volume of 125 μL per determination. Glucose was quantified based on absorbance at 505 nm relative to glucose standard curves. Standard curves were prepared in eight serial dilutions downward from 0.6 mM in sodium acetate-calcium chloride reaction buffer.

[6] = Characterisation of recombinant RfLacA and RfLacB isoforms; type: biochemical
[7] = Preliminary stability test of purified recombinant Cell-1; type: physicochemical; conditions: incubation at 65° C. or 26° C. for 65 hr
Source text: An approximately 48 kDa band was present in baculovirus-infected larvae, but absent from uninfected and blank virus controls. Following purification and concentration the recombinant Cell-1 protein migrated as a single band at approximately 48 kDa. […] In addition to endoglucanase activity (the expected activity for Cell-1), exoglucanase and β-glucosidase activities were also investigated using the substrates pNPC and pNPG. All three activities were present in both uninfected and blank-virus-infected T. ni larvae, with exoglucanase and β-glucosidase activity being the strongest. However, only endoglucanase activity remained for purified Cell-1. In agreement with SDS-PAGE results, it was enriched at least 10-fold relative to clarified supernatants of infected larvae.

[8] = Colorimetric β-1,4-endoglucanase assay of Cell-1 on CMC; type: biochemical; conditions: BEVS-expressed; 100 mM sodium acetate pH 6.5, 25° C.
Description: Colorimetric β-1,4-endoglucanase enzyme assays: Six total substrates were tested: CMC (carboxymethyl cellulose), pNPG (p-nitrophenyl-beta-D-glucopyranoside), pNPC2 (p-nitrophenyl-beta-D-cellobioside), pNPC3 (p-nitrophenyl-beta-D-cellotrioside), pNPC4 (p-nitrophenyl-beta-D-cellotetraoside), and pNPC5 (p-nitrophenyl-beta-D-cellopentaoside). All assay methods were carried out under optimal conditions (Zhou et al., (2007) Gene 395:29-39).
(FIG. 7). For subsequent characterizations, the 1.5% CMC concentration was used. pH studies were performed by dissolving 1.5% CMC in two different buffer systems: 100 mM sodium acetate (pH 3-6.5) and 100 mM sodium phosphate (pH 7-10.5), as shown in FIG. 8. […] Temperature-cofactor studies were performed using 1.5% CMC dissolved in 100 mM sodium phosphate (pH 7) alone, plus 4 mM EDTA (final concentration), or plus 10 mM calcium chloride (final concentration). Pre-incubations took place for 0-5 days at 25° C. or 0-60 min at 60° C. or 70° C.; reactions were terminated by the combination of adding stop solution and boiling for 10 min, and then assays were read at 25° C. (FIG. 9).

[9] = E. coli-expressed Cell-1 against exoglucanase and β-glucosidase substrates; type: biochemical; conditions: Ni-purified active fractions
Description: Soluble fractions obtained after 19° C. IPTG induction were subjected to Ni-chromatography for purification. The His-tagged Cell-1 was retained on Ni columns and eluted in a single peak of CMC activity after the introduction of imidazole elution buffer.

For O=C(O)CN(CCN(CC(=O)O)CC(=O)O)CC(=O)O [EDTA, ethylenediaminetetraacetate], the “effect on Cell-1 CMC endoglucanase activity” value ([1]; incubations over a 5-day period at about 25° C.) was “slightly inhibitory”, the “effect on Cell-1 temperature stability” value ([1]; pre-incubation at 60° C. and 70° C., 0-60 min) was “rapidly reduced temperature stability; also recorded: reduces temperature stability” and the “effect on RfLac6 activity” value ([2]; at concentrations as low as 0.01 mM) was “completely inhibited”.

In the case of O=C(O)CS [TGA, thioglycolic acid], the “concentration up to which RfLac6 activity is enhanced, inhibitory above” value [2] is reported as no more than 10 mM.

With OC[C@@H]1[C@@H](O[C@@H]2O[C@H](CO)[C@@H](O)[C@H](O)[C@H]2O)[C@H](O)[C@@H](O)c2nccn21 [cellobioimidazole (CBI), cellobioimidazole] the “inhibition of recombinant RfBGluc-1” value [3] was “concentration-dependent inhibition”.

For “fluoromethyl cellobiose [fluoromethyl cellobiose (FMCB)]”, the “inhibition of recombinant RfBGluc-1” value [3] was “concentration-dependent inhibition”.

B1: RfLacA: recombinant R. flavipes gut laccase isoform 1, clone Lac6, SEQ ID NO.: 8 (protein)
chain: LIRLTIGQAVVSTQSTREAVVSTQSTRDTALSVYRSDAYIMLPCVLLACAIGVASATSVLLNSYLQPNDDIDRNTYLLNAKSNNCARICNGTEAPKICYYQWTIENYVTLSEACDNCPLNVTACYNAQCITADGYERSILSVNRKLPGPSIEVCLRDRVIVDITNNMAGRTTSIHWHGVFQKGSQYMDGVPMVTQCTIHEGDTFRYDFIANNEGTHFWHSHDGLQKLDGVTGNLVVRVPKNFDPNGQLYDFDLPEHKIFISDWLHLSADDHFPGLRATNPGQDANSFLINGRGRTLIGTQSTNTPYAQINVQWGRRYRLRIVGSLCTVCPTQLTIDGHKITVIATDGNSVAPARVDSLIIYSGERYDVVLEATNTEGSYWIHLKGLATCVGSRVYQLGVLQYENTTTNKLHALTPDPGYDGFPQPASYRVLNPENASCSIGSTGLCVTQLANSDPVPRDILTQLPDINYLLQFGFETFDSRSFFKAYDRYFVSPFLELLSSTVNNISFVSPPSPLLSQRGDVPDDILCPTGADGLPQCPGGNSYCTCVHVIKIKLGALVQIILSDQSPKSDLNHPFHIHGHAFYVLGMGQYAAGQTAQDLLNSLKSNVSSVSPAPVLKDTVAVPSGGYAIIKFRPKNPGYWFLHCHFLYHVATGMSVVLQVGETSDYPPTPDGFPKCGSFTPPVNTN
modifications: Reticulitermes flavipes; amino acid sequence Laccase Lacc-6
With B1 the “action on lignin alkali” value [4] was “evidence of RfLacA action on lignin”, the “glucose release from pine sawdust (in words)” value [5] was “No glucose release was detectable” and the “oxidation of ABTS and syringaldazine” value [6] was “unable to oxidize”.

B2: Cell-1: host-derived β-1,4-endoglucanase (GHF9) from Reticulitermes flavipes, SEQ ID NO.: 2; recombinant, BEVS or E. coli expressed (protein)
chain: MKVFVCLLSALALCQAAYDYKTVLSNSLLFYEAQRSGKLPSDQKVTWRKDSALNDKGQKGEDLTGGYYDAGDFVKFGFPMAYTVTVLAWGVIDYESAYSAAGALDSGRKALKYGTDYFLKAHTAANEFYGQVGQGDVDHAYWGRPEDMTMSRPAYKIDTSKPGSDLAAETAAALAATAIAYKSADATYSNNLITHAKQLFDFANNYRGKYSDSITDAKNFYASGDYKDELVWAAAWLYRATNDNTYLTKAESLYNEFGLGNWNGAFNWDNKISGVQVLLAKLTSKQAYKDKVQGYVDYLISSQKKTPKGLVYIDQWGTLRHAANSALIALQAADLGINAATYRAYAKKQIDYALGDGGRSYVVGFGTNPPVRPHHRSSSCPDAPAVCDWNTYNSAGPNAHVLTGALVGGPDSNDSYTDARSDYISNEVATDYNAGFQSAVAGLLKAGV
modifications: Reticulitermes flavipes; amino acid sequence Beta-1,4-endoglucanase (Cell-1)
notes: recombinant, BEVS or E. coli expressed
In the case of B2, the “protein stability in purified form” value [7] is reported as “no protein degradation”, the “Km against CMC” value [8] is reported as 1.496 % w/v and the “Vmax against CMC” value [8] is reported as 1.469 pmol/min/mg. The “activity against pNPC and pNPG” value [9] was “no activity” and the “glucose release from pine sawdust” value [5] was 3.70 pmol/min.
